According to publication PMC12150756 (Infection and Immunity, 2025):
Read-outs that look alike come from different tables or passages of the source.

Legend:
[1] = biological target: T1, PfCSPC, C-terminal αTSR domain of P. falciparum NF54 circumsporozoite protein (E310-S384) (P. falciparum NF54, UniProt P19597); experiment: crystal structure; sdAb:PfCSPC complex prepared at 1.2:1, purified by SEC in 20 mM Tris-HCl, 150 mM NaCl, pH 7.5; sitting drop at 20°C; tags retained; data to ~2.1 Å; conditions: both partners purified
T1 construct: C-terminal domain (αTSR) of circumsporozoite protein of P. falciparum NF54, UniProt P19597, residues E310-S384; source: E. coli SHuffle T7 Express, purified (IMAC, SEC); not shown: TEV cleavage site (…), C-terminal, kept; His6, C-terminal, kept

[2] = biological target: T2, full-length CSP from P. falciparum 3D7 on the surface of transgenic P. berghei ANKA sporozoites (PfCSP-PbSPZs) (P. falciparum 3D7, UniProt Q7K740); experiment: flow cytometry on cells; salivary gland PfCSP-PbSPZs (15- and 22-day-old), formaldehyde-fixed; sdAb incubated at ambient temperature; detected with anti-HA Alexa Fluor 647; MFI; conditions: one partner purified
T2 construct: Full-length circumsporozoite protein of P. falciparum 3D7, expressed on transgenic P. berghei ANKA sporozoites; The same protein on midgut (MG) and salivary gland (SG) sporozoites; the assays tell them apart; also called PfCSP on MG SPZs; PfCSP on SG SPZs; source: transgenic P. berghei ANKA sporozoites isolated from midguts or salivary glands of Anopheles stephensi

[3] = biological target: T3, PfCSPFL, recombinant full-length P. falciparum NF54 circumsporozoite protein devoid of signal peptide and GPI … (P. falciparum NF54, UniProt P19597); experiment: ELISA; antigen coated at 1 µg/mL on Maxisorb plates, blocked with 5% milk in PBS; purified sdAb at 1 µg/mL, 1 h at room temperature, triplicates; detected with anti-HA mAb and anti-mouse-HRP; conditions: both partners purified
T3 construct: Circumsporozoite protein (CSP) of P. falciparum NF54, UniProt P19597, residues F20-S384, devoid of signal peptide and GPI anchor; Gene synthesized, codon-optimized, in pET-21b(+); also called full-length PfCSP

[4] = biological target: PbCSPFL, recombinant full-length P. berghei ANKA circumsporozoite protein devoid of signal peptide and GPI … (Plasmodium berghei ANKA, UniProt P23093); experiment: as above; conditions: both partners purified
[5] = biological target: T3, PfCSPFL, recombinant full-length P. …
[6] = biological target: T1, PfCSPC, C-terminal αTSR domain of P. …

T1 sequence (P19597 310-384): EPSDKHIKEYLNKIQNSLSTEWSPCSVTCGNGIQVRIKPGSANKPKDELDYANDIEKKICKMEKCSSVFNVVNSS
T3 sequence (P19597 20-384): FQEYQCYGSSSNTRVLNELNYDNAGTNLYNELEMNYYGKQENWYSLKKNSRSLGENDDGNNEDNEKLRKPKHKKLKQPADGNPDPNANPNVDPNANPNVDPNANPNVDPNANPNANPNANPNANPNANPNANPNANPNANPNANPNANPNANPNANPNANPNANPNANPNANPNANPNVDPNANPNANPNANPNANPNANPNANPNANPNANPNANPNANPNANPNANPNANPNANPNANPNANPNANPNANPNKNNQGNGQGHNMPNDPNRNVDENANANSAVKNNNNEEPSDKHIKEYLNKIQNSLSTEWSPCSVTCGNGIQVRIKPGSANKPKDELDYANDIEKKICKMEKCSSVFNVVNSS
T2 sequence (Q7K740 19-374): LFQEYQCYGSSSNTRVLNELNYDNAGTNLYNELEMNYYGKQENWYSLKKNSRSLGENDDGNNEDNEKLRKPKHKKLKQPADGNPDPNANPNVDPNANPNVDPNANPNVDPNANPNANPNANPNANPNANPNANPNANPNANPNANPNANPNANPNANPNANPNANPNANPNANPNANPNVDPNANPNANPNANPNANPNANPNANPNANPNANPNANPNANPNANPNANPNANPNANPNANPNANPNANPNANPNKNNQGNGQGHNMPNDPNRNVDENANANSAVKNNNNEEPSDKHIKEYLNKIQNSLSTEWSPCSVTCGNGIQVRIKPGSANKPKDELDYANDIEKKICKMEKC

B1: sdAb9, anti-PfCSP camelid single-domain antibody (VHH)
VHH: QVQLQESGGGLVQAGGSLRLSCAASGRTFSSYSMGWFRQVPGKEREFVARITSSGGNTDYADSAKGRFTISRDNAKNTVYLQMSTLKPEDTAVYYCAADLWQYGRNSRAADYDYWGQGTQVTVSS
notes: from the library of the alpaca Attitude (immunized with PfCSPFL); Expressed from pMECS-GG; Same VHH family as sdAb1; source: E. coli WK6, periplasmic extract, purified (Ni-NTA, SEC); crude bacterial extract for the screening ELISA
- binding result [1]: binds
- binding result [2]: binds
- binding result [3]: binds
- binding result [4]: no binding (tested: 1 µg/mL sdAb)

B2: sdAb3 (VHH)
VHH: QVQLQESGGGLVQAGGSLRLSCAASGRTFTEYSMGWFRQAPGKEREFVARISWSGGSTYYADSVKGRFTISRDNAENTVYLQMTSLKPEDTAVYYCAADQLQFGRNSRAADYDDWGQGTQVTVSS
- binding result [5]: binds
- binding result [6]: binds

B3: sdAb18 (VHH)
VHH: QVQLQESGGGLVQPGGSLNLSCTAGVSLDYYAIGWFRQAPGKEREFVARISSSGGNTYYADSVRGRFTISRDNAKNTVYLQMNSLKPEDTAVYYCAADLLQFGRSSRAADYDYWGQGTQVTVSS
- binding result [5]: binds
- binding result [6]: binds

B4: sdAb4 (VHH)
VHH: QVQLQESGGGLVQVGGSLRLSCAASGRTFSSYTMAWFRQAPGKEREFVAAISRSGSNTYYADSVKGRFTISRDNAKNTVYLQMSSLYPEDTAVYTCAARDAILLLTTTHYDYWGQGTQVTVSS
- binding result [5]: binds
- binding result [6]: binds

B5: sdAb10 (VHH)
VHH: QVQLQESGGGLVQPGGSLRLSCAASGRTFSSYTMGWFRQAPGKERELVAAISRSGLNTDYADSVKGRFTISRDNAKNTVYLQMNTLKPEDTAVYYCAARSTIRLLTDPSYDYWGQGTQVTVSS
- binding result [5]: binds
- binding result [6]: binds

B6: sdAb15 (VHH)
VHH: QVQLQESGGGLVQAGGSLRLSCVATGRPFDDYTVAWFRQAPGKERDFVAAISRSGVSTYYQDDVKGRFTISRDNARNTAYLSMNSLKPEDTAVYYCAARSTIRLLTDPSYDYWGQGTQVTVSS
- binding result [5]: binds
- binding result [6]: binds

B7: sdAb6 (VHH)
VHH: QVQLQESGGGLVQAGGSLRVSCVGSGRAFSRYSMGWFRQFPGKEREFVACISSSGGAIDYADSVKGRFTISRDNAKNAVYLQMNSLKPDDTAVYYCAADQFRISTVPMGVIDYWGQGTQVTVSS
- binding result [5]: binds
- binding result [6]: binds

B8: sdAb8 (VHH)
VHH: QVQLQESGGGLVQAGGSLRLSCAASGRTVSSYTMGWFRQAPGKERSFVAASLRSGGSTYYSDSVKGRFTISRDNAKNTVYLQMNSLRPEDTAVYYCAADEQLAYNINYNYRNYDYWGQGTQVTVSS
- binding result [5]: binds
- binding result [6]: binds

B9: sdAb5 (VHH)
VHH: QVQLQESGGGLVQAGGSLRLSCAASGRTFGSYVMGWFRQAPGKEREFVAAISRSGGTTYYADSVKGRFAISRDNAKNTVFLQMNSLKPEDTAVYYCAATTTISMLVVLTTTPKYDYWGQGTQVTVSS
- binding result [5]: binds
- binding result [6]: binds

B10: sdAb2 (VHH)
VHH: QVQLQESGGGLVQFGGSLRLSCAASGFTFSSANMSWVRQAPGKGLEWVSTISPGGGTTSYAGSVKGRFTISRDNAKNTLYLQMNALKPEDTAVYYCATGGPSSQESVYRGQGTQVTVSS
- binding result [5]: binds
- binding result [6]: binds

B11: sdAb7 (VHH)
VHH: QVQLQESGGGVVQTGGSLRLSCAASVRTFSNYALGWFRQAPGKEREFVARISSSGGNTYYADSVRGRFTISRDNAKNTVYLQMNSLKPEDTAVYYCAADLLQFGRSSRAADYDYWGQGTQVTVSS
- binding result [5]: binds
- binding result [6]: binds

B12: sdAb1, anti-PfCSP camelid single-domain antibody (VHH)
VHH: QVQLQESGGGLVQAGGSLRLSCAASGRTFSSYSMGWFRLVPGKEREFVARISSSGGNTYYADSVRGRFTISRDNAKNTVYLQMNSLKPEDTAVYYCAADLLQFGRSSRAADYDYWGQGTQVTVSS
notes: from the library of the alpaca Attitude (immunized with PfCSPFL); Expressed from pMECS-GG; Same VHH family as sdAb9; source: E. coli WK6, periplasmic extract, purified (Ni-NTA, SEC); crude bacterial extract for the screening ELISA
- binding result [1]: binds
- binding result [2]: binds
- binding result [3]: binds
- binding result [4]: no binding (tested: 1 µg/mL sdAb)
